B2: human CD127 (IL-7Rα) expressed on cells (CD127-transfected CHO cells; PBMC / CD4+ T cells in functional assays) (receptor)
chain: ESGYAQNGDLEDAELDDYSFSCYSQLEVNGSQHSLTCAFEDPDVNTTNLEFEICGALVEVKCLNFRKLQEIYFIETKKFLLIGKSNICVKVGEKSLTCKKIDLTTIVKPEAPFDLSVIYREGANDFVVTFNTSHLQKKYVKVLMHDVAYRQEKDENKWTHVNLSSTKLTLLQRKLQPAAMYEIKVRSIPDHYFKGFWSEWSPSYYFRTPEINNSSGEMDPILLTISILSFFSVALLVILACVLWKKRIKPIVWPSLPDHKKTLEHLCKKPRKNLNVSFNPESFLDCQIHRVDDIQARDEVEGFLQDTFPQQLEESEKQRLGGDVQSPNCPSEDVVVTPESFGRDSSLTCLAGNVSACDAPILSSSRSLDCRESGKNGPHVYQDLLLSLGTTNSTLPPPFSLQSGILTLNPVAQGQPILTSLGSNQEEAYVTMSSFYQNQ
notes: The construct transfected into CHO is not described further; The same entry is used for native CD127 on human PBMC/T cells in functional rows; also called CHO-CD127; IL-7Rα expressed on CHO

Assays:
[1] = target: recombinant human CD127 extracellular domain (CD127 ECD) (human) (UniProt P16871); test: BIAcore blocking assay: inhibition ratio of CD127 ECD binding to immobilised IL-7 against antibody concentration
[2] = target: human CD127 (IL-7Rα) expressed on cells (CD127-transfected CHO cells; PBMC / CD4+ T cells in functional assays) (human) (UniProt P16871); test: binding to CHO cells expressing IL-7Rα (flow cytometry)
[3] = target: recombinant human CD127 extracellular domain (CD127 ECD) (human) (UniProt P16871); test: SPR (profile summary)
[4] = target: human CD127 (IL-7Rα) expressed on cells (CD127-transfected CHO cells; PBMC / CD4+ T cells in functional assays) (human) (UniProt P16871); test: cell-based or functional assay
[5] = target: recombinant human CD127 extracellular domain (CD127 ECD) (human) (UniProt P16871); test: blocking of IL-7/IL-7Rα binding, competitor IL-7; format not given
[6] = target: T1, recombinant human CD127 extracellular domain (CD127 ECD) (human, UniProt P16871 21-219); test: blocking of IL-7/IL-7Rα binding, competitor IL-7; format not stated in the sentence (BIAcore neutralising assay with immobilised IL-7 is described in 2.11)
T1 construct: The assays only say 'recombinant human CD127 ECD'; also called IL-7Rα EDC; IL-7Rα
T1 chain: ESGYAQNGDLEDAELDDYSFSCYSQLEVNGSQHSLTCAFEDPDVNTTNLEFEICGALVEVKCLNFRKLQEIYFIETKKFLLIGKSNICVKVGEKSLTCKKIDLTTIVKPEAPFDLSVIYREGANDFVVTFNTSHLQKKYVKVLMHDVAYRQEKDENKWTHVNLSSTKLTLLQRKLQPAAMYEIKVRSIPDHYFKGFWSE

[7] = target: B2; test: cell-based or functional assay
[8] = target: T1, recombinant human CD127 extracellular …; test: BIAcore blocking assay: inhibition ratio of CD127 ECD binding to immobilised IL-7 against antibody concentration
Procedure: HBS-EP buffer pH 7.4 (consisting of 10 mM HEPES, 0.15 M sodium chloride, 3 mM EDTA and 0.005% v/v surfactant P20) was used as running buffer. Sensograms were run against a reference cell that was blank immobilized using EDC/NHS/ethanol amine. […] After each injection the sensor chip surfaces were regenerated with 10 mM Glycine-HCl, pH 2.0. […] Inhibition ratio calculated as follows: Inhibition ratio=1−RU(sample)/RU(ECD).

[9] = target: T1, recombinant human CD127 extracellular …; test: SPR, Biacore T100, 25° C.; antibody captured on rabbit anti-mouse IgG, CD127 ECD as analyte
Procedure: Antibody kinetics were assessed using a Biacore T100 system (GE Healthcare) with a reaction temperature of 25° C. Rabbit anti-mouse IgG antibody was immobilized on a CM5 biosensor chip with a final level of […] (response units) using the standard amine coupling kit and procedure. HBS-EP buffer pH 7.4 (consisting of 10 mM HEPES, 0.15 M sodium chloride, 3 mM EDTA and 0.005% v/v surfactant P20) was used as running buffer. Sensograms were run against a reference cell that was blank immobilized using EDC/NHS/ethanol amine. […] The sensor chip surfaces were regenerated with 10 mM Glycine-HCl, pH 1.7. Kd values were calculated using the Biacore evaluation software package.

[10] = target: T1, recombinant human CD127 extracellular …; test: SPR (profile summary; differs from Table 3)
[11] = target: B2; test: binding to CHO cells expressing IL-7Rα (flow cytometry)
[12] = target: T2, recombinant human IL-7 (human, UniProt P13232 26-177); test: flow cytometry competition on CHO-CD127 cells: pre-incubation with IL-7, then staining with 6A3 (competitor read out: 6A3)
T2 sequence (looked up): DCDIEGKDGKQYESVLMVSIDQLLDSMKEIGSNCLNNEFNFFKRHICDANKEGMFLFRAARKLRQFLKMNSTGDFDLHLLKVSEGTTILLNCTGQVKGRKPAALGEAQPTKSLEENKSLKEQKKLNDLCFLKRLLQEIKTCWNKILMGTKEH
Procedure: After the incubation, anti-CD127 antibodies were added and the incubation continued for additional 30 min in 4% FCS in DPBS (FACS buffer). Afterward cells were washed in FACS buffer 3 times and stained with anti-mouse IgG ALEXA488 secondary antibody at 1:2000 dilution (Invitrogen Inc. #13-A11017).

[13] = target: T1, recombinant human CD127 extracellular …; test: blocking of IL-7/IL-7Rα binding, competitor IL-7; format not given
[14] = target: T1, recombinant human CD127 extracellular …; test: SPR, Biacore T100; CD127 ECD immobilised on CM5, 9B7 hybridoma supernatant as analyte; table title says 37° C.
Procedure: HBS-EP buffer pH 7.4 (consisting of 10 mM HEPES, 0.15 M sodium chloride, 3 mM EDTA and 0.005% v/v surfactant P20) was used as running buffer. […] Kd values were calculated using the Biacore evaluation software package.

[15] = target: T1, recombinant human CD127 extracellular …; test: ELISA, recombinant human CD127 ECD coated on the plate, detection with HRP goat anti-mouse IgG
Description: Anti-CD127 antibodies from the test hybridoma supernatants or purified material were titrated across the plate. The level of binding was detected by treatment with a horse-radish peroxidase (HRP) -conjugated goat-anti-mouse IgG antibody. The ELISA was developed using TMB substrate.

For “R34.34 (Dendritics Inc. #DDX0700), commercial anti-human CD127 antibody”, which IC50 (read off the curve) [1] is on record?
Its IC50 (read off the curve) is 3 µg/mL.

And the EC50 [2]?
Its EC50 is 0.01 µg/mL.

What about the Kd [3] of the same molecule?
The Kd was 7.74 nM.

And the IC50 of inhibition of pSTAT5 signalling [4]?
Its IC50 of inhibition of pSTAT5 signalling is 0.67 µg/ml.

And the IL-17 production in IL-7 induced differentiated T cells (CCR6+ TH17), donors with inhibition [4]?
Its IL-17 production in IL-7 induced differentiated T cells (CCR6+ TH17), donors with inhibition is 6 of 6 donors.

What about the IC50 [5] of the same molecule?
The IC50 was 1.38 µg/mL.

B1: mAb 6A3 (murine anti-human CD127 monoclonal antibody) (antibody, mouse IgG1, V domains shown)
VH: DVQLQESGPGLVKPSQSLSLTCTVTGYSITTDYAWNWIRQFPGNKLEWMGYIFYSGSTTYTPSLKSRISITRDTSKNQFFLQLNSVTTEDTATYYCARGGYDVNYFDYWGQGTTLTVSS
VL: DIQMTQSPASQSASLGESVTITCLASQTIGAWLAWYQQKPGKSPQLLIYAATRLADGVPSRFSGSGSGTKFSFKISSLQAEDFVSYYCQQFFSTPWTFGGGTKLEIK
notes: also called antibody 6A3
Which results are given for B1?
IC50 [6]: 1.92 µg/mL; IC50 of inhibition of pSTAT5 signalling [7]: 0.099 µg/ml; IC50 (read off the curve) [8]: ~2 µg/mL; Kd [9]: 7.74 nM; koff [9]: 0.000146 s⁻¹; kon [9]: 18900 M⁻¹ s⁻¹; Kd [10]: 7.99 nM; koff [10]: 0.000334 s⁻¹; EC50 [11]: 0.19 µg/mL

Does B2 bind [12]?
Result: binds

B3: mAb 6C5 (murine anti-human CD127 monoclonal antibody) (antibody, mouse IgG1, V domains shown)
VH: EVKLLESGGGLVQPGGSLKLSCAASGFAFSAYWMSWVRQAPGKGLEWIGEINPDSSTINCTPSLKDKFIISRDNAKNTLSLQMNKVRSEDTALYYCARRLRPFWYFDVWGAGTTVTVSS
VL: DVLMTQTPLSLPVSLGDQASISCRSSQSIVQSNGNTYLEWYLQKPGQSPKLLIYKVSNRFSGVPDRFSGSGSGTDFTLKISRVEAEDLGVYYCFQGSHVPRTFGGGTKLEIK
notes: also called antibody 6C5
Which results are given for B3?
IC50 of inhibition of pSTAT5 signalling [7]: 50 µg/ml; Kd [9]: 24.4 nM; koff [9]: 0.000436 s⁻¹; kon [9]: 17900 M⁻¹ s⁻¹

B4: mAb 1A11 (murine anti-human CD127 monoclonal antibody) (antibody, mouse IgG1, V domains shown)
VH: EVQLQQSGPELLKPGASMKISCKASGYSFTGYTMNWVKQSHGKNLEWIGLINPYNGVTSYNQKFKGKATLTVAKSSSTAYMELLSLTSEDSAVYYCARGDGNYWYFDVWGAGTTVTVSS
VL: EIVLTQSPAITAASLGQKVTITCSASSSVTYMHWYQQKSGTSPKPWIYEISKLASGVPVRFSGSGSGTSYSLTISSMEAEDAAIYYCQEWNYPYTFGGGTKLEIK
notes: also called antibody 1A11
B4 was tested. Which “IC50 of inhibition of pSTAT5 signalling” value [7] did it give?
Its value is 0.088 µg/ml.

And the IC50 [13]?
The IC50 was 1.79 µg/mL.

What about the Kd [9] of the same molecule?
Its Kd is 3.44 nM.

What about the koff [9] of the same molecule?
Its koff is 0.000251 s⁻¹.

And the EC50 [11]?
Its EC50 is 0.16 µg/mL.

B5: mAb GR34 (reverse engineered clone of R34.34) (antibody, mouse IgG1, V domains shown)
VH: EVQLQQSGPELVKPGASMKISCKASGYSFTGYTMNWVKQSHGKNLEWIGLINPYSGITSYNQNFKGKATLTVDKSSSTAYMELLNLTSEDSAVYYCARGDGNYWYFDVWGAGTTVTVSS
VL: EIILTQSPAITAASLGQKVTITCSASSSVSYMHWYQQKSGTSPKPWIYEISKLASGVPARFSGSGSGTSYSLTISSMEAEDAAIYYCQYWNYPYTFGGGTKLEIK
notes: also called antibody GR34
What does the source list for B5?
IC50 of inhibition of pSTAT5 signalling [7]: 0.22 µg/ml; IC50 [13]: 2.29 µg/mL; Kd [9]: 15.3 nM; koff [9]: 0.000875 s⁻¹; EC50 [11]: 0.27 µg/mL

B6: mAb 9B7 (murine anti-human CD127 monoclonal antibody) (antibody, IgG1, V domains shown)
VH: QVQLQESGPGLVAPSQSLSITCTVSGFSLSRYNVHWVRQPPGKGLEWLGMIWDGGSTDYNSALKSRLSITKDNSKSQVFLKMNSLQTDDTAMYYCARNRYESGMDYWGQGTTVTVSS
VL: DIVMTQTPSSLTVTAGEKVTMSCKSSQSLLNSGNRKNYLTWYQQKPGQSPKLLIYWASTRESGVPDRFTGSGSGTDFTLIISSVQAEDLAVYYCQNDYTYPFTFGSGTKLEIKR
notes: Mouse hybridoma antibody; also called antibody 9B7; clone 9B7
How did the Kd [14] turn out when B6 was run?
The Kd was 0.556 nM.

And the “EC50 (read off the curve)” value [15]?
Its value is roughly 0.6 µg/mL.

From patent publication US20110287000A1 (published 2011)
